Test results reported in publication PMC8490722 (Frontiers in Immunology, 2021).

Biological target: T1, SARS-CoV S1 subunit (SARS-CoV WH20 (AAX16192.1), UniProt Q5DIC5)
T1 construct: source: bought: Sino Biological
Test: western blotting
Details: one partner purified

B1: mAb 12C10 (antibody, V domains shown)
VH: EVKLQESGGGLVKPGGSLKLSCAASGFTFSNYSMSWVRQTPEKRLEWVATISNGGGYIYYLDSVKGRFTISRDNAKNTLYLQMSSLRSEDTAMYYCGRPRPEKEFISTSTAMDHWGQGTTVT
VL: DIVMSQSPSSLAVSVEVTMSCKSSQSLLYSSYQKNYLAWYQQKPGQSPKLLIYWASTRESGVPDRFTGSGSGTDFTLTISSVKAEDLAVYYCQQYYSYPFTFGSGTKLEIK
notes: also called anti-R405; source: mouse hybridoma; supernatants or ascites fluid
B1: binds.
